Laboratory results published in patent US20260042850A1.

Target: Insulin
Test: polyreactivity ELISA on insulin (and dsDNA)

Chain of Insulin (P01308 25-54, chain 1 of 2): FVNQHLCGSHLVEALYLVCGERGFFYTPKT
Chain of Insulin (P01308 90-110, chain 2 of 2): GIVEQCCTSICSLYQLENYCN

reactivity score	Substance
> 15	Bococizumab analogue (antibody)
> 15	Briakinumab analogue (antibody)
